{
  "source": "paper PMC2230540",
  "about": "(The Journal of General Physiology, 1999)",
  "proteins": {"B1": {"name": "EriC, Escherichia coli ClC-type Cl- channel homologue, product of the yadQ gene (natural protein, UniProt P37019 1-473, looked up)", "chain": "MKTDTPSLETPQAARLRRRQLIRQLLERDKTPLAILFMAAVVGTLVGLAAVAFDKGVAWLQNQRMGALVHTADNYPLLLTVAFLCSAVLAMFGYFLVRKYAPEAGGSGIPEIEGALEDQRPVRWWRVLPVKFFGGLGTLGGGMVLGREGPTVQIGGNIGRMVLDIFRLKGDEARHTLLATGAAAGLAAAFNAPLAGILFIIEEMRPQFRYTLISIKAVFIGVIMSTIMYRIFNHEVALIDVGKLSDAPLNTLWLYLILGIIFGIFGPIFNKWVLGMQDLLHRVHGGNITKWVLMGGAIGGLCGLLGFVAPATSGGGFNLIPIATAGNFSMGMLVFIFVARVITTLLCFSSGAPGGIFAPMLALGTVLGTAFGMVAVELFPQYHLEAGTFAIAGMGALLAASIRAPLTGIILVLEMTDNYQLILPMIITGLGATLLAQFTGGKPLYSAILARTLAKQEAEQLARSKAASASENT"}},
  "molecular_target": "the molecule itself",
  "test": "cross-linking",
  "data": [
    {"protein": "B1", "values": [
      {"measurement": "stoichiometry N", "value": 2}
    ]}
  ]
}
